What was measured:
Experiment in all cases: ELISA; attachment factors coated at 280.0 pmol/mL in carbonate-bicarbonate buffer overnight at 4 C, blocked with 1.0% BSA; P protein (GI.1 or GII.4) 10.0 ug/mL, 1 h at 37 C; detected with anti-HuNoV monoclonal antibodies; positive when S/N >= 2.0
[1] = target: recombinant C2K0J4 (Penicillin-binding protein, transpeptidase domain protein) (Lactobacillus rhamnosus YQ001)
[2] = target: recombinant oyster heat shock protein 70 (oyster)
[3] = target: recombinant C2JVE6 (ATP-dependent zinc metalloprotease) (Lactobacillus rhamnosus YQ001)
[4] = target: recombinant C2JX39 (DNA topoisomerase 4 subunit A) (Lactobacillus rhamnosus YQ001)

Chain of GI.1 HuNoV P protein (domain or fragment) (Q83884 226-530 limits assumed): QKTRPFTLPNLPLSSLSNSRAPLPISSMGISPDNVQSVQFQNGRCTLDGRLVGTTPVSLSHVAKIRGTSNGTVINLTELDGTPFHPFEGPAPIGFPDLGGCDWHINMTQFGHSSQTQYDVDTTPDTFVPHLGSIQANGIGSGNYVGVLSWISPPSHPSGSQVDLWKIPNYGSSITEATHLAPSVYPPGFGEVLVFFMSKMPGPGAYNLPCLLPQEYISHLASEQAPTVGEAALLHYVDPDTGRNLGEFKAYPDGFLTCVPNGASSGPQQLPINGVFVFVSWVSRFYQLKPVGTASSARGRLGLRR

Substance	S/N ratio [1]	S/N ratio [2]	S/N ratio [3]	S/N ratio [4]
GII.4 HuNoV P protein (domain or fragment)	17.3	16	16.7	
GI.1 HuNoV P protein (domain or fragment)	16.4	15.5	16.6	16.4

Source: publication PMC12628836
